Patent US20260317420 (published 2026)

T1: mouse Claudin18.2 (mouse, UniProt P56857)
T1 chain: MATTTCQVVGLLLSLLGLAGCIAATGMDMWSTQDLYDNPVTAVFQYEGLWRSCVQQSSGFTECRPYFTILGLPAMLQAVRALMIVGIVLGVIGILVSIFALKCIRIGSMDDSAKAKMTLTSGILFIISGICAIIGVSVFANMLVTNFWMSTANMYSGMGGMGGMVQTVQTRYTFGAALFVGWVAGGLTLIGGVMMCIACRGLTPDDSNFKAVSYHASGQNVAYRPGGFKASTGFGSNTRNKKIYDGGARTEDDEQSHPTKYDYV

T2: rat Claudin18.1 (rat, UniProt Q5I0E5)
T2 chain: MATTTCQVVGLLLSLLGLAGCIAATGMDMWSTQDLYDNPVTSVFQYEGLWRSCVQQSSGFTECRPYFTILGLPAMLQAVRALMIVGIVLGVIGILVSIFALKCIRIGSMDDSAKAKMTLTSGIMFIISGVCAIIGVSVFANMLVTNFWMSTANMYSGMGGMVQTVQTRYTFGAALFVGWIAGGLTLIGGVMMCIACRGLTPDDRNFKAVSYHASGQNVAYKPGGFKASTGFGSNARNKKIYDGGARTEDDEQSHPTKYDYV

T3: mouse Claudin18.1 (mouse, UniProt P56857)
T3 chain: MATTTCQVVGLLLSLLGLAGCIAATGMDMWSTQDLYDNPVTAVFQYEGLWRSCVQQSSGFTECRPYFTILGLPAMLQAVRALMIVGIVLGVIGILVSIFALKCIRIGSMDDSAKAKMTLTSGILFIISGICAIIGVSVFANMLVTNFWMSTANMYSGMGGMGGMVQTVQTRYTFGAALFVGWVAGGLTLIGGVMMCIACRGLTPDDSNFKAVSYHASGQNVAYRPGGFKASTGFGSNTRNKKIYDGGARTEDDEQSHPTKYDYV

T4: human Claudin18.1 (human, UniProt P56856)
T4 chain: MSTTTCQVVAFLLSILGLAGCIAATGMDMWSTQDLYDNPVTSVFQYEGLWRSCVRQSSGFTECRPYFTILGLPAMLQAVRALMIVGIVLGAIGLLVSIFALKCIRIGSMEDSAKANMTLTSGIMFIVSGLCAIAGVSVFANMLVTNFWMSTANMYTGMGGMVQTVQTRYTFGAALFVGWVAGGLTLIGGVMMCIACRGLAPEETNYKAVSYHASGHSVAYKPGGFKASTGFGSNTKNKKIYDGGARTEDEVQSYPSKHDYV


Key:
human Claudin18.2 [1] = target: T5, human Claudin18.2 (human, UniProt P56856); assay: BLI
human Claudin18.2 [2] = target: T5, human Claudin18.2; assay: BLI, bivalent
mouse Claudin18.2 = target: T1, mouse Claudin18.2; assay: BLI
rat Claudin18.1 = target: T2, rat Claudin18.1; assay: FACS
mouse Claudin18.1 = target: T3, mouse Claudin18.1; assay: FACS
human Claudin18.1 = target: T4, human Claudin18.1; assay: ELISA

Kd (human Claudin18.2 [1]) [nM] | Kd (human Claudin18.2 [2]) [nM] | Kd (mouse Claudin18.2) [nM] | binding result (rat Claudin18.1) | binding result (mouse Claudin18.1) | binding result (human Claudin18.1) | Binder
3 |  |  |  |  |  | 5208H10 (SI-64CH5) (antibody, V domains shown) VH: QSVKESEGGLFKPTDTLTLTCTVSGFSLSTYAMSWVRQAPGNGLEWIGIIDAVGRTYYASWAKSRSTITRNTNLNTVTLKMTSLTAADTATYFCARWWDLWGQGTLVTVSS VL: AQVLTQTASSVSAAVGGTVTINCQSSQSVYDSNDLTWYQQKPGQSPKLLIYLASTLASGVPSRFKGSGSGTQFTLTISDLECDDSATYYCAAHYNSDIYTFGGGTEVEVK
1.59 | 5.31 |  |  |  |  | Zolbetuximab (SI-64C8) (antibody, V domains shown) VH: QVQLQQPGAELVRPGASVKLSCKASGYTFTSYWINWVKQRPGQGLEWIGNIYPSDSYTNYNQKFKDKATLTVDKSSSTAYMQLSSPTSEDSAVYYCTRSWRGNSFDYWGQGTTLTVSS VL: DIVMTQSPSSLTVTAGEKVTMSCKSSQSLLNSGNQKNYLTWYQQKPGQPPKLLIYWASTRESGVPDRFTGSGSGTDFTLTISSVQAEDLAVYYCQNDYSYPFTFGSGTKLEIKR
1.45 | 0.216 | 1.73 | no binding | no binding | no binding | 5103F3 BSM (SI-64M1) (antibody, V domains shown) VH: QVQLQESGGRLIKPGEPLRLSCKTSGIDLSGFAMGWVRQAPGKGLEYIGFIDSGGGAFYATWARGRFTISRTSTNTVYLQMNSLTAEDTAVYYCARHGGNTYYYAMDPWGPGTLVTVSS VL: ALRMTQSPSSLAATTGQRVTITCQASQSISNYLAWYQQKPGQPPKLLIYSASTLASGVPSRFKGSGSGTQFTLTISCVQCEDFATYYCQQVYSVTNIDNAFGGGTRVEIK
